# In the RNAGym collection of RNA variant scans (doi:10.7554/elife.80360):
# B1: CPEB3 Ribozyme (parent)
# chain: GGGGGCCACAGCAGAAGCGUUCACGUCGCGGCCCCUGUCAGAUUCUGGUGAAUCUGCGAAUUCUGCUGU
# Variants of: B1
# Assay: self-cleavage, relative activity (ratio to wild type); higher = more cleavage; co-transcriptional
row,Variant,self-cleavage
1,A10U U69A,1.02
2,G11A C33G,0.733
3,G11A C33U,0.908
4,G11C U21G,0.199
5,G11C U21C,0.431
6,G11A G25U,0.176
7,G11A G25C,0.103
8,G11A G50U,0.927
9,G11A G50C,0.715
10,G11C G41A,0.209
11,G11C C12A,0.653
12,G11A C54G,0.426
13,G11A C54U,0.886
14,G11A C54A,0.368
15,G11U A42G,0.476
16,G11U A42C,0.342
17,G11A A16C,0.0873
18,G11A A16G,0.575
19,G11A A16U,0.352
20,G11C G30A,0.522
21,G11C G30C,0.435
22,G11A G17U,0.142
23,G11A G17C,0.122
24,G11A G17A,0.119

row,Variant,self-cleavage
1,G11A A40C,0.14
2,G11A C66U,0.967
3,G11A G30C,0.672
4,G11A G30A,0.663
5,G11A G30U,0.32
6,G11C U61G,0.383
7,G11C U61A,0.424
8,G11C A59U,0.36
9,G11C A59C,0.324
10,G11C G17U,0.144
11,G11C G17C,0.143
12,G11U C39U,0.527
13,G11U C39A,0.36
14,G11U C39G,0.536
15,G11A U49G,0.965
16,G11A U49A,0.926
17,G11A U44G,0.76
18,G11A U44C,0.528
19,G11A C18G,0.106
20,G11A C18A,0.107
21,G11A C18U,0.278
22,A10U U55A,0.888
23,A10U U55G,0.888
24,G11A A23U,0.855

row,Variant,self-cleavage
1,G11A A23G,0.792
2,G11A A23C,0.775
3,G11A G56U,0.475
4,G11A G56A,0.708
5,G11U C33G,0.619
6,G11U C33A,0.765
7,G11U A40C,0.213
8,G11U A40G,0.668
9,G11U G37U,0.165
10,G11U G37A,0.145
11,G11U G37C,0.213
12,G11C C66A,0.844
13,G11C U26A,0.387
14,G11C U26C,0.729
15,G11C U26G,0.417
16,G11A C45G,0.859
17,G11U G25U,0.136
18,G11U G25A,0.141
19,G11A G47A,0.942
20,G11A G47U,0.937
21,G11A G47C,0.895
22,G11A C32G,0.293
23,G11A C32A,0.816
24,G11C U44A,0.636

row,Variant,self-cleavage
1,G11A C63G,0.493
2,G11A C63A,0.75
3,G11U C66U,0.955
4,G11U C66G,0.949
5,G11U C66A,0.918
6,G11C C32U,0.82
7,G11C C32A,0.601
8,G11C C32G,0.17
9,G11U C18G,0.0807
10,G11U C18U,0.372
11,G11U C18A,0.0522
12,G11C G58A,0.82
13,G11A G14A,0.119
14,G11A G14C,0.267
15,G11A G65A,0.759
16,G11A G65U,0.781
17,G11U A23G,0.651
18,G11U A23C,0.685
19,G11U A23U,0.945
20,G11A G37A,0.188
21,G11A G37C,0.196
22,G11U C27U,0.148
23,G11U C27G,0.134
24,G11U C27A,0.16

row,Variant,self-cleavage
1,G11A C39A,0.405
2,G11A C39G,0.646
3,G11A C39U,0.609
4,G11U G31C,0.138
5,G11U G31U,0.499
6,G11A C35U,0.861
7,G11A C35A,0.242
8,G11A A60G,0.434
9,G11A A60U,0.323
10,G11U G17C,0.129
11,G11U G17A,0.141
12,G11U G17U,0.148
13,G11C G37A,0.217
14,G11C G37C,0.103
15,G11A A42C,0.544
16,G11A A42G,0.586
17,G11A A42U,0.548
18,A10U U61C,0.781
19,G11U G47A,0.897
20,G11U G47C,0.954
21,G11U G19U,0.118
22,G11U G19C,0.135
23,G11U G19A,0.115
24,G11C C54G,0.261

row,Variant,self-cleavage
1,G11C C54U,0.618
2,G11A U36C,0.727
3,G11A U36A,0.211
4,G11A U36G,0.131
5,G11C U67A,0.897
6,G11C U67C,0.92
7,G11C U67G,0.93
8,G11A U21A,0.875
9,G11A U21C,0.633
10,G11U C29U,0.142
11,G11U C29G,0.149
12,G11U C29A,0.202
13,G11U C24G,0.177
14,G11U C24U,0.422
15,G11C G14U,0.172
16,G11C G14C,0.0758
17,G11C G14A,0.0859
18,G11A C12A,0.74
19,G11A C12G,0.788
20,G11A U61A,0.452
21,G11A U61G,0.392
22,G11A U61C,0.268
23,G11A U67C,0.996
24,G11A U67G,0.98

row,Variant,self-cleavage
1,G11A C57U,0.332
2,G11A C57A,0.287
3,G11A C22A,0.127
4,G11A C22U,0.191
5,G11A A13U,0.186
6,G11C U53C,0.28
7,G11C U53A,0.381
8,G11C G25A,0.149
9,G11C G25C,0.177
10,G11C A51G,0.73
11,G11C A51U,0.621
12,G11C A51C,0.624
13,G11U A13U,0.184
14,G11U A13C,0.146
15,G11U A13G,0.527
16,G11U C45U,0.893
17,G11U C45A,0.732
18,G11C C34U,0.901
19,G11C C34G,0.578
20,G11C C34A,0.615
21,G11A U26A,0.676
22,G11C U36G,0.18
23,G11C U36C,0.62
